Test results: paper PMC4357707 (Nucleic Acids Research, 2015)
Positions count from the first letter of the chain named.

Assays:
[1] = biological target: T1, HEN1-KK69-70AA (Arabidopsis thaliana, UniProt Q9C5Q8 1-942, K69A;K70A); experiment: EMSA
T1 sequence: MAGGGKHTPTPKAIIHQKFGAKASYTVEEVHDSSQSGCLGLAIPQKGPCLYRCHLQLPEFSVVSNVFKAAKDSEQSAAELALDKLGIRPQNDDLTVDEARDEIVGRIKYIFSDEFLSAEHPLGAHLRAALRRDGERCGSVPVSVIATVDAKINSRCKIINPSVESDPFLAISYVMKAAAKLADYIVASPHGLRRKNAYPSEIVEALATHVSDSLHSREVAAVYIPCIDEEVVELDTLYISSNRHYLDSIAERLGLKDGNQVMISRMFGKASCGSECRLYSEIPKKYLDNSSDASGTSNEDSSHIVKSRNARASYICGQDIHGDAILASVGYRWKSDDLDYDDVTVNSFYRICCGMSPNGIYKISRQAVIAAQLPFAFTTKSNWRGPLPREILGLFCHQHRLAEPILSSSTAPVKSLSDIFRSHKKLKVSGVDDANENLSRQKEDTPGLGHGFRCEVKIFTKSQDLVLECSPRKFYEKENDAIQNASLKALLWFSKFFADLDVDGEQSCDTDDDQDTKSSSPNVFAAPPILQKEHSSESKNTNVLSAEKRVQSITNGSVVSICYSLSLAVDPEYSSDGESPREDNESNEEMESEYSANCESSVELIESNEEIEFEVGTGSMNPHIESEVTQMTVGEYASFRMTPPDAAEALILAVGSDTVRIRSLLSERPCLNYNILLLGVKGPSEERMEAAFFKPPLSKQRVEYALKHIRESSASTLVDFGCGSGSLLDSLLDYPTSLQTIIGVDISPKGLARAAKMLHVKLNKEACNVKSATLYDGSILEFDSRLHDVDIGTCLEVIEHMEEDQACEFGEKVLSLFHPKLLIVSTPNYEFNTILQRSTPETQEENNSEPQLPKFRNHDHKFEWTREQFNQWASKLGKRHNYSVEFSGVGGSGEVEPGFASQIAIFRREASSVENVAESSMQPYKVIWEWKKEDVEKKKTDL

[2] = biological target: T2, HEN1-KKKK68-71SAAS (Arabidopsis thaliana, UniProt Q9C5Q8 1-942, K68S;K69A;K70A;K71S); experiment: EMSA
T2 sequence: T1 sequence with K68S, K71S

B1: miR173/miR173* (dsRNA)
RNA 1: UUCGCUUGCAGAGAGAAAUCAC
RNA 2: GAUUCUCUGUGUAAGCGAAAG
binding result [1]: no binding
binding result [2]: no binding
